Legend:
[1] = molecular target: T1, HA-Halo-MC3R (melanocortin-3 receptor) (human, UniProt P41968 1-323, CA-Sulfo646 dye on the Halo tag); assay: single-molecule pull-down (SiMPull); two-colour SiMPull: HA-Halo-tagged bait (CA-Sulfo646) and FLAG-CLIP-tagged prey (BC-DY547) co-expressed in HEK293 cells (300 ng Halo and 600 ng CLIP plasmid), labelled before lysis in 0.5% LMNG/0.05% CHS, bait immobilised by biotinylated anti-HA antibody, co-localisation and photobleaching steps by TIRF; conditions: partners not purified
T1 construct: human melanocortin-3 receptor (MC3R); pRK5 construct with an N-terminal signal peptide from rat mGluR2 before the HA and Halo tags; also called ss-HA-Halo-MC3R; source: HEK293, transiently transfected, in lysate (LMNG-CHS); not shown: HA, N-terminal, kept; Halo, N-terminal, kept
T1 sequence (P41968 whole entry): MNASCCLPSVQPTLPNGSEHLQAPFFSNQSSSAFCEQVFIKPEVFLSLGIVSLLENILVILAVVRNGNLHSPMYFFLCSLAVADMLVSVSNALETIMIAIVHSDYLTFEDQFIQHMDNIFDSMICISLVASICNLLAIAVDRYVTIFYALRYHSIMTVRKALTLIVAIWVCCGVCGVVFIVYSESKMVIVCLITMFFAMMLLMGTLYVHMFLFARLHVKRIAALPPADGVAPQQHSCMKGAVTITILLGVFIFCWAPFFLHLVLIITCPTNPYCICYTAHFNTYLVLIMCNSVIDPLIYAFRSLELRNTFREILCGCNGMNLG

[2] = molecular target: the molecule itself; assay: single-molecule pull-down (SiMPull); one-colour SiMPull with photobleaching step analysis: HA-Halo-tagged protein labelled on HEK293 cells with membrane-impermeable CA-Sulfo646, lysed in 0.5% LMNG/0.05% CHS, immobilised by biotinylated anti-HA antibody on a PEG-passivated slide, TIRF imaging

| stoichiometry N [1] [MRAP2 per MC3R] | Binder | stoichiometry N [2] |
| --- | --- | --- |
| 1 | FLAG-CLIP-MRAP2 (melanocortin-2 receptor accessory protein-2) (natural protein, human, UniProt Q96G30 1-205, looked up, BC-DY547 dye on the CLIP tag, human melanocortin-2 receptor accessory protein 2 (MRAP2); pRK5 construct with an N-terminal signal peptide from rat mGluR2 before the tags; also called ss-FLAG-CLIP-MRAP2; source: HEK293, transiently transfected, in lysate (LMNG-CHS); not shown: FLAG, N-terminal, kept; CLIP, N-terminal, kept) MSAQRLISNRTSQQSASNSDYTWEYEYYEIGPVSFEGLKAHKYSIVIGFWVGLAVFVIFMFFVLTLLTKTGAPHQDNAESSEKRFRMNSFVSDFGRPLEPDKVFSRQGNEESRSLFHCYINEVERLDRAKACHQTTALDSDVQLQEAIRSSGQPEEELNRLMKFDIPNFVNTDQNYFGEDDLLISEPPIVLETKPLSQTSHKDLD |  |
|  | mGluR2 (receptor, UniProt P31421 19-872, looked up, metabotropic glutamate receptor 2 (mGluR2), control of the SiMPull photobleaching analysis; also called known dimeric GPCR mGluR2; source: HEK293, transfected, in lysate) EGPAKKVLTLEGDLVLGGLFPVHQKGGPAEECGPVNEHRGIQRLEAMLFALDRINRDPHLLPGVRLGAHILDSCSKDTHALEQALDFVRASLSRGADGSRHICPDGSYATHSDAPTAVTGVIGGSYSDVSIQVANLLRLFQIPQISYASTSAKLSDKSRYDYFARTVPPDFFQAKAMAEILRFFNWTYVSTVASEGDYGETGIEAFELEARARNICVATSEKVGRAMSRAAFEGVVRALLQKPSARVAVLFTRSEDARELLAATQRLNASFTWVASDGWGALESVVAGSERAAEGAITIELASYPISDFASYFQSLDPWNNSRNPWFREFWEERFHCSFRQRDCAAHSLRAVPFEQESKIMFVVNAVYAMAHALHNMHRALCPNTTHLCDAMRPVNGRRLYKDFVLNVKFDAPFRPADTDDEVRFDRFGDGIGRYNIFTYLRAGSGRYRYQKVGYWAEGLTLDTSFIPWASPSAGPLPASRCSEPCLQNEVKSVQPGEVCCWLCIPCQPYEYRLDEFTCADCGLGYWPNASLTGCFELPQEYIRWGDAWAVGPVTIACLGALATLFVLGVFVRHNATPVVKASGRELCYILLGGVFLCYCMTFVFIAKPSTAVCTLRRLGLGTAFSVCYSALLTKTNRIARIFGGAREGAQRPRFISPASQVAICLALISGQLLIVAAWLVVEAPGTGKETAPERREVVTLRCNHRDASMLGSLAYNVLLIALCTLYAFKTRKCPENFNEAKFIGFTMYTTCIIWLAFLPIFYVTSSDYRVQTTTMCVSVSLSGSVVLGCLFAPKLHIILFQPQKNVVSHRAPTSRFGSAAPRASANLGQGSGSQFVPTVCNGREVVDSTTSSL | 2 |

Source: paper doi:10.1101/2024.11.06.622243, “The MRAP2 accessory protein directly interacts with melanocortin-3 receptor to enhance signaling” (bioRxiv, 2024)
